*1 amine or outer side, *2 acyl side, *3 side chain or, on linkers, in order; H or OH if unused. Where a SMILES comes first, the peptide text is derived from it. Bridges are numbered along the chain shown (N, C = ends). Side-chain parts run from the residue outwards. [ ]: non-standard residue; d: D form. The star is where a group is joined. X1 = O=C([C@@H](Cc1ccccc1)N(c1c(NCCCCCN(O)[*:3])c(=O)c1=O)[*:1])[*:2]; X2 = CC(=O)N(O)CCCCCNC(=O)CCC(=O)N(O)CCCCCN*; Thr(ol) = C[C@@H](O)[C@H](N)CO; Suc = O=C(CCC(=O)[*:2])[*:1]
Key:
[1] = in vivo; design: species or system mice; conditions: female, Balb/c nude, mouse, iv, total radioactivity
Method: (§1) PET-CT imaging and Biodistribution of Octreotate/tide Tracers. Female Balb/c nude mice (age 9 weeks) were inoculated subcutaneously on the right flank with 3×10^6 AR42J cells in PBS:Matrigel (1:1). Mice were weighed and tumours measured twice weekly using electronic callipers. Tumour volume (mm^3) was calculated as length^2×width/2. 12 mice were assigned for imaging and biodistribution studies (tumour volumes: 170-550 mm^3). DFOSqTIDE (2.5 MBq) and DFOSqTATE (2.2 MBq) were administered intravenously by tail vein injection to mice on. At 1, 2, 4 and 18 hr post injection three mice were anaesthetised using isoflurane and placed on the imaging bed of a G8 PET/CT scanner (Perkin Elmer). A CT scan was performed which was immediately followed by a 10 min static PET scan. PET images were reconstructed using the maximal likelihood and expectation maximization (ML-EM) algorithm. PET images were analysed using VivoQuant (Invicro) and Tumour SUVmax, Tumour SUVmax/background average (TBR) and Tumour SUVmax/liver average (TLR) determined. After imaging at 18 hr mice were euthanised and selected tissues were excised, weighed and counted using a Capintec (Captus 4000e) gamma counter. A separate cohort of 3 mice was harvested at 1 hr post injection for biodistribution analysis. The data was analysed using GraphPad Prism 7 and differences between tracers analysed using a t-test. The high tumor uptake was confirmed by an ex vivo biodistribution study in the same mouse model where mice were injected with either ^68GaDFOSq-TIDE and ^68GaDFOSq-TATE (2-3 MBq, 1 μg, 0.5 nmol) and then euthanised at either 1 h or 2 h after administration. The amount of injected activity per gram of tissue (% IA/g) in the tumor and major organs was quantified (FIG. 16).

[2] = tested on: AR42J (rat pancreatic cancer cell line) tumour; experiment: in vivo; design: species or system mice; conditions: mouse
Method: as §1, with “t-test.” for “t-test. The high tumor uptake was confirmed by an ex vivo biodistribution study in the same mouse model where mice were injected with either ^68GaDFOSq-TIDE and ^68GaDFOSq-TATE (2-3 MBq, 1 μg, 0.5 nmol) and then euthanised at either 1 h or 2 h after administration. The amount of injected activity per gram of tissue (% IA/g) in the tumor and major organs was quantified (FIG. 16).”
(§2) AR42J (rat pancreatic cancer cell line) tumour bearing Balb/c nude mice as described above were injected intravenously via tail vein injection with ^89ZrDFOSqTATE or ^89ZrDFOSqTIDE (2-3 MBq). At 1, 2, 4 and 18 h post-injection the mice were anaesthetised with isoflurane and imaged over 10 min. At 1 hr after injection of DFOSqTIDE and DFOSqTATE, uptake into kidney, tumour and liver was observed. Representative PET images of mice injected with DFOSqTIDE and DFOSqTATE are shown in FIG. 12 and quantitation of the tumour SUVmax for each radiotracer is summarised in FIG. 13a.
(§3) ^68GaDFOSq-TIDE and ^68GaDFOSq-TATE tracers were injected (2-3 MBq, 1 μg, 0.5 nmol) intravenously via tail vein to AR42J (rat pancreatic cancer cell line) tumour bearing Balb/c nude mice. PET images were acquired at 1 and 2 h post-injection (FIGS. 15a and b). […] Quantification of the uptake in the images using Standard Uptake Value (SUVmax=radioactivity in a tissue/injected activity/BW) confirms the higher uptake for ^68GaDFOSq-TATE (1 h; SUVmax 1.8±0.2, compared to 1.21±0.20, FIG. 15c). The higher tumor uptake of ^68GaDFOSqTATE was also associated with a higher degree of tumor retention at 2 h post injection with only a 5% reduction in SUVmax whereas the tumor SUVmax for ^68GaDFOSqTIDE reduced by 30% ^68GaDFOSqTATE at 2 h post injection. Both tracers clear rapidly from the blood and there is low uptake in bone consistent with stable gallium-68 complexes as well as low uptake in muscle. Both tracers have significant uptake in the kidneys and bladder.

[3] = in vivo; design: species or system mice; conditions: female, Balb/c nude, mouse, iv, total radioactivity; remark: listed apart in the source
Method: as §1, with “t-test.” for “t-test. The high tumor uptake was confirmed by an ex vivo biodistribution study in the same mouse model where mice were injected with either ^68GaDFOSq-TIDE and ^68GaDFOSq-TATE (2-3 MBq, 1 μg, 0.5 nmol) and then euthanised at either 1 h or 2 h after administration. The amount of injected activity per gram of tissue (% IA/g) in the tumor and major organs was quantified (FIG. 16).”
as §2, §3

[4] = tested on: LNCap cells; experiment: Cell binding and internalization studies in LNCap cells; assay type: cell-based, human
Method: (§4) Cell binding and internalization studies. LNCap cells (150,000/well) were plated in RPMI 1640 medium containing 10% FBS into wells of a 24 well plate pre-coated with 0.05% poly-L-lysine and incubated overnight at 37° C. and 5% CO2. The following day cells were washed twice with PBS and incubated for 1 hour at 37° C. in 1 mL per well internalisation buffer (MEM, 1% FBS). The buffer was then replaced with 1 ml per well of a warmed solution containing 0.5 μCi ^89Zr-DFOsq-PSMA tracers in internalisation buffer. Cells were incubated in triplicate for 5, 15, 30 or 60 min at 37° C. and 5% CO2. At each time point, cells were washed twice with ice-cold PBS and the washes collected for counting (unbound fraction). Cells were then incubated twice for 10 min in saline containing 10 μM PMPA and each wash collected for counting (surface bound fraction). The cells were then solubilised in 1 M NaOH (internalised fraction). Total protein content was determined in this fraction using a BCA protein assay kit (Pierce). A Perkin Elmer 2480 Wizard automatic gamma counter was then used to measure Zr-89 radioactivity in unbound, surface bound and internalised fractions. Surface bound and internalised fractions were expressed as percentage of total added radioactivity per mg of protein. Non-specific membrane binding and internalisation was determined by incubating cells with the ^89Zr-DFOSq-PSMA tracers in the presence of excess (10 μM) PMPA. ^89Zr-DFOSq-PSMA tracers uptake at 60 min was also determined in DU145 cells (seeded at 125,000 cells/well), a PSMA negative cell line. The raw data was analysed using GraphPad Prism 7.

[5] = tested on: DU145 cells; experiment: Tracer uptake in DU145 cells, a PSMA negative cell line; assay type: cell-based; conditions: 60 min, in words
Method: as §4, with “At each time point, cells were washed twice with ice-cold PBS and the washes collected for counting (unbound fraction). Cells were then incubated twice for 10 min in saline containing 10 μM PMPA and each wash collected for counting (surface bound fraction). The cells were then solubilised in 1 M NaOH (internalised fraction).” left out

[6] = in vivo; design: species or system mice; conditions: male, mouse, iv, total radioactivity
Method: PET-CT imaging and Biodistribution. Male Balb/c nude mice (age 8.5 weeks) or Male NSG mice (age 12 weeks) were inoculated subcutaneously on the right flank with 6×10^6 LNCap cells in PBS:Matrigel (1:1). Mice were weighed and tumours measured twice weekly using electronic callipers. Tumour volume (mm^3) was calculated as length×width×height×π/6. Mice were assigned for imaging and biodistribution studies (tumour volumes: 85-450 mm3). ^89Zr-DFOSq-PSMA tracers were then administered intravenously by tail vein injection to 6 mice. At 1, 2, 4 and 18 hr post injection three mice were anaesthetised using isoflurane and placed on the imaging bed of a G8 PET/CT scanner (Perkin Elmer). A CT scan was performed and followed immediately by a 10 min static PET scan. PET images were reconstructed using the maximal likelihood and expectation maximization (ML-EM) algorithm. PET Images were analysed using VivoQuant (Invicro) and Tumour SUVmax or Tumour SUVmax/background average (TBR) determined. After imaging at 18 hr mice were euthanised and selected tissues were excised, weighed and counted using a Capintec (Captus 4000e) gamma counter. A separate cohort of 3 mice was harvested at 1 hr post injection for biodistribution analysis as above. The data was analysed using GraphPad Prism 7 and differences between tracers analysed using a t-test.
^89Zr Labelled tracers: The ^89Zr radiolabelled PSMA tracers were injected intravenously via tail vein to LNCaP (human PSMA expressing prostate cancer cell line) tumour bearing mice. At 1, 2, 4 and 18 h post-injection the mice were anaesthetised with isoflurane and imaged over 10 min. The representative PET images of mice injected with ^89Zr radiolabelled PSMA tracers at 1 and 18 hr are shown in FIG. 1 and quantitation of the Tumour SUVmax for each tracer is shown in FIG. 2a. […] There was a trend for higher tumour SUVmax for (4) tracer compared to all other tracers at all time points. […] A comparison of tumour uptake values is shown in FIG. 2b and the tissue biodistribution data for the tracers at 1 and 18 hr is summarised in FIG. 3.
^68Ga Labelled tracers: Representative PET images of mice injected with ^68Ga(1) and ^68Ga(4) are shown in FIG. 4 and quantitation of the tumour SUVmax is shown in FIG. 5a. […] Tumour uptake of ^68Ga(4) was 1.6 and 1.8 fold higher than ^68Ga(1) at 1 and 2 hr p.i., respectively. This is consistent with the biodistribution results where tumour % ID/g for ^68Ga(4) was higher than ^68Ga(1) at 1 hr (10.8±1.3 vs 6.5±0.4) and at 2.5 hr (8.6±1.0 vs 4.1±0.5) p.i. […] (6.5±0.4% ID/g at 1 hr vs 4.1±0.5% ID/g at 2.5 hr). In contrast, there was no significant change in ^68Ga(4) tumour retention at 1 and 2.5 p.i. (10.8±1.3% ID/g vs […], FIG. 5b).

[7] = tested on: AR42J (rat pancreatic cancer cell line) tumour; experiment: in vivo; design: species or system mice; conditions: female, Balb/c nude, mouse, iv, 18 h
Method: as §1

[8] = Tumour uptake % IA/g 1 h post injection

Structure (SMILES): CC(=O)N(O)CCCCCNC(=O)CCC(=O)N(O)CCCCCNC(=O)CCC(=O)N(O)CCCCCNc1c(N[C@H](Cc2ccccc2)C(=O)N[C@H]2CSSC[C@@H](C(=O)N[C@H](C(=O)O)[C@@H](C)O)NC(=O)[C@H]([C@@H](C)O)NC(=O)[C@H](CCCCN)NC(=O)[C@@H](Cc3c[nH]c4ccccc34)NC(=O)[C@H](Cc3ccc(O)cc3)NC2=O)c(=O)c1=O (68Ga complex, metal not drawn) [^68GaDFOSqTATE] (H-[X1]([Suc-X2])CY[dW]KTCT-OH; disulfide 2-7)
- tissue uptake at 2 h ([1]; Tumor uptake % ID/g 2 h post injection): 9.22 ± 0.92 %ID/g
- tissue uptake at 1 h [1, 8]: 9.8 ± 2.33 %ID/g
- tissue uptake at 1 h ([1]; Uptake in the kidneys): 16 ± 3.27 %ID/g
- Reduction in tumor SUVmax at 2 h post injection [2]: 5%
- SUV at 1 h [3]: 1.8 ± 0.2 SUV

Structure (SMILES): CC(=O)N(O)CCCCCNC(=O)CCC(=O)N(O)CCCCCNC(=O)CCC(=O)N(O)CCCCCNc1c(N[C@H](Cc2ccccc2)C(=O)N[C@H]2CSSC[C@@H](C(=O)N[C@H](CO)[C@@H](C)O)NC(=O)[C@H]([C@@H](C)O)NC(=O)[C@H](CCCCN)NC(=O)[C@@H](Cc3c[nH]c4ccccc34)NC(=O)[C@H](Cc3ccc(O)cc3)NC2=O)c(=O)c1=O (68Ga complex, metal not drawn) [^68GaDFOSqTIDE] (H-[X1]([Suc-X2])CY[dW]KTC[Thr(ol)]; disulfide 2-7)
- tissue uptake at 1 h [1, 8]: 8.81 ± 1.03 %ID/g
- tissue uptake at 2 h ([1]; Tumour uptake % IA/g 2 h post injection): 4.4 ± 1.1 %ID/g
- tissue uptake at 1 h ([1]; Uptake in the kidneys): 37.6 ± 3.5 %ID/g
- Reduction in tumor SUVmax at 2 h post injection [2]: 30%
- SUV at 1 h [3]: 1.21 ± 0.2 SUV

Structure (SMILES): CC(=O)N(O)CCCCCNC(=O)CCC(=O)N(O)CCCCCNC(=O)CCC(=O)N(O)CCCCCNc1c(NCc2ccc(C(=O)NCCCCC(NC(=O)NC(CCC(=O)O)C(=O)O)C(=O)O)cc2)c(=O)c1=O (centres unmarked) [(1), DFOSq-PhPSMA ligand]
- Cell Uptake % AR/mg protein (60 min) internalized ([4]; 89Zr tracers, 60 min, 37° C.): 7 % AR/mg protein
- Internalised activity in the presence of excess PMPA ([4]; excess (10 μM) PMPA): up to 5 % AR/mg protein
- Surface binding ([4]; presence and absence of excess PMPA, all timepoints): 2 % AR/mg protein
- Binding in DU145, PSMA negative cell line [5]: Minimal binding
- tissue uptake at 1 h ([6]; Tumour Uptake % ID/g 1 h pi): 5.4 %ID/g
- tissue uptake at 18 h ([6]; Tumour Uptake % ID/g 18 h pi): 2.2 %ID/g

Structure (SMILES): CC(=O)N(O)CCCCCNC(=O)CCC(=O)N(O)CCCCCNC(=O)CCC(=O)N(O)CCCCCNc1c(N[C@H](Cc2ccccc2)C(=O)N[C@H]2CSSC[C@@H](C(=O)N[C@H](CO)[C@@H](C)O)NC(=O)[C@H]([C@@H](C)O)NC(=O)[C@H](CCCCN)NC(=O)[C@@H](Cc3c[nH]c4ccccc34)NC(=O)[C@H](Cc3ccc(O)cc3)NC2=O)c(=O)c1=O [DFOSqTIDE] (H-[X1]([Suc-X2])CY[dW]KTC[Thr(ol)]; disulfide 2-7)
- Tumour Uptake % ID/g 18 h pi [7]: 1.5±0.1 % ID/g
- tissue uptake at 1 h ([1]; Tumour Uptake % ID/g 1 h pi): 3.4 ± 0.4 %ID/g
- tissue uptake at 18 h ([1]; Tumour Uptake % ID/g 18 h pi): 1.7 ± 0.1 %ID/g
- Tumour SUVmax Clearance % [2]: 55%
